Laboratory results published in patent US10829799 (UNIVERSITY COURT OF THE UNIVERSITY OF DUNDEE, dated 2020).

Target: T1, NAE (NEDD8 E1; Dac-NAE1-UBA3) (UniProt Q13564 1-534; Q8TBC4 1-463)
T1 construct: Co-expressed in Sf21 cells from pFastBacDual; not shown: Dac tag
T1 sequence (looked up) 1: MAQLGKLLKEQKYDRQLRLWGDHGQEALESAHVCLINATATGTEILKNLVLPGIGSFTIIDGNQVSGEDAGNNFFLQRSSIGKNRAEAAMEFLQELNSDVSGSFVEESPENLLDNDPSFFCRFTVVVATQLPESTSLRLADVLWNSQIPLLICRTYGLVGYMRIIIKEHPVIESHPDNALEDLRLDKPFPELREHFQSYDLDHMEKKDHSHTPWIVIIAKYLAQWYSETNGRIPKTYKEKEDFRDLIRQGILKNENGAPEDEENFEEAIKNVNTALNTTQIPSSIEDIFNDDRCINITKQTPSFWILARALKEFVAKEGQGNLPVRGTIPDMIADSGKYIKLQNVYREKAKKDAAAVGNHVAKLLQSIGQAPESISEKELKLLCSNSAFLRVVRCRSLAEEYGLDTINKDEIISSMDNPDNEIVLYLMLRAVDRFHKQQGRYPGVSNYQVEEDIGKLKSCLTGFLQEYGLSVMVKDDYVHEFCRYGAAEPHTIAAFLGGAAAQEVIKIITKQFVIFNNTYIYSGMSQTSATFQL
T1 sequence (looked up) 2: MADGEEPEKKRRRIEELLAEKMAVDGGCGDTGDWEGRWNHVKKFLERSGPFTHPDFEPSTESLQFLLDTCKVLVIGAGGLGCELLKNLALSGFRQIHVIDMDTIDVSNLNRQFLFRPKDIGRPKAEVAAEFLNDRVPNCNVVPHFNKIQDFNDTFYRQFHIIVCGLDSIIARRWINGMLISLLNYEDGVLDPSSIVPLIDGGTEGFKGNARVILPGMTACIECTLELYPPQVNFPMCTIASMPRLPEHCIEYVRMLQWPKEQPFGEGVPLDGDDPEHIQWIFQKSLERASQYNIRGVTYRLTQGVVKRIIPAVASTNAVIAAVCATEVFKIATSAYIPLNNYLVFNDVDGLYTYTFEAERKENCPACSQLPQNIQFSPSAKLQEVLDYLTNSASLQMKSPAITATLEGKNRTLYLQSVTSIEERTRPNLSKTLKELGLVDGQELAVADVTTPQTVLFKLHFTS
Experiment: covalent activity-based labelling, SDS-PAGE (FIG. 3C)
Protocol: E2 probes (14 μM) were mixed with E1 enzyme (3.5 μM) and diluted 10× reaction buffer (500 mM Na_2HPO_4 pH 8) or 10×Ub-ATP buffer (500 mM Na_2HPO_4 pH 8, 20 μM ubiquitin, 20 mM ATP) to a final volume of 15-50 μL. Reactions were incubated at 30° C. and 15 μL aliquots were taken at 1 and 5 h time points which were quenched with 5 μL of reducing SDS-gel loading buffer (NuPAGE LDS loading buffer (4×), 715 mM 2-mercaptoethanol). The quenched reaction solutions were boiled for 5 minute at 100° C. and then 4 μL was analysed by SDS-PAGE (NuPAGE Bis-Tris, 4-12%).

B1: UBE2M-=CN (enzyme)
chain: MGSSHHHHHHSSGLEVLFQGPGSPEFPGVDSKAAAMIKLFSLKQQKKEEESAGGTKGSSKKASAAQLRIQKDINELNLPKTCDISFSDPDDLLNFKLVICPDEGFYKSGKFVFSFKVGQGYPHDPPKVKCETMVYHPNIDLEGNVCLNILREDWKPVLTINSIIYGLQYLFLEPNPEDPLNKEAAEVLQNNRRLFEQNVQRSMRGGYIGSTYFERCLK
modifications: labelled with TDMA 1 (thioacrylonitrile); 4 of 5 cysteines modified
notes: Legend notes a double band due to degradation of UBE2M
binding result: binds
